In patent US11592453B2, “Personalized metabolomic profiling of specialized pro-resolving mediators” (THE BRIGHAM AND WOMEN'S HOSPITAL, INC., priority 2016, dated 2023):
Read-outs that look alike come from different tables or passages of the source. Positions of bridges follow the written chain, without caps; N, C: chain ends. Non-standard residues stand in square brackets, D forms with d. Residues, ends and D or L forms follow the SMILES beside them. hArg = N=C(N)NCCCC[C@H](N)C(=O)O; Mpa = O=C(O)CCS

Experiments:
[1] = tested on: SPM production in human whole blood; experiment: SPM and eicosanoid production during coagulation with heparin, eptifibatide, ADA, celecoxib or BAI; type: cell-based
Description: FIG. 2 illustrates regulators of SPM formation in human blood. (A to E) Freshly drawn human peripheral blood (4 ml) containing heparin (10 U/ml) was placed in polypropylene tubes (A) whereas human peripheral blood without anticoagulant was placed in silicone-coated tubes (B to E) and incubated at 37° C. for the time course of 0 to 24 hours (see Example 1, Materials and Methods). The samples were then subjected to snap-freezing for extraction and LC-MS/MS analysis. (A) Concentrations of the members of the SPM cluster (identified in FIG. 1) in samples treated without (Coag.) or with heparin (10 U/ml) during the incubation period. Data are means±SEM of three individual donors. (B) Left: Combined concentrations of the total SPM cluster, prostaglandins, and thromboxanes after 24 hours of coagulation in the presence or absence of the αIIbβ3 inhibitor eptifibatide (Eptifib.; 20 μM). Middle: Clot volumes after 24 hours of coagulation of the indicated samples. Right: Representative clot images. Data are means±SEM of three individual donors. (C) Concentrations of total SPMs and of the indicated individual SPMs after 24 hours of coagulation in the presence or absence of 200 mU ADA. Data are means±SEM of three individual donors. *P<0.05, **P<0.01 by ratio t-test. (D) Top: LC-MS/MS measurements of adenosine concentrations in whole blood at the indicated time points during coagulation in the presence or absence of ADA. **P<0.01 when compared to the zero-hour time point. Bottom: Flow cytometric analysis of the percentage of neutrophil-platelet aggregates, which were defined as being double-positive for CD16 and CD42b, in whole blood allowed to coagulate for the indicated times in the absence (Coag.) or presence of ADA. Data are means±SEM of five individual donors. *P<0.05, **P <0.01 by student's t test. For dot plots and gating, see FIG. 7B. (E) MS/MS fragmentation profiles with diagnostic ions for the indicated SPMs identified in (C). (F) Left: PCA score plot. Red denotes +ADA for 1 hour; yellow, coagulation for 1 hour; green, coagulation for 24 hours; blue, +ADA for 24 hours. Right: PCA loading plot showing temporal clustering of the indicated mediators from three individual donors. Red denotes LM at 1 hour; blue denotes 24 hours with ADA).
FIG. 8 illustrates SPM formation in human blood clots being regulated by lipoxygenase activity. (A and B) Freshly drawn human peripheral blood (4 ml) was placed in silicone-coated tubes at 37° C. for 24 hours and coagulation was stopped by snap-freezing before LC-MS/MS analysis was performed. Concentrations of total SPMs, prostaglandins, and thromboxanes after 24 hours of coagulation (Coag.) in the presence or absence of (A) 100 μM indomethacin (Indo.) (n=six individual donors), (B) 500 nM celecoxib (CLX) or 20 μM BAI (n=three individual donors). […]

human blood clot = experiment: Clot volume after 24 hours of coagulation; type: cell-based; settings: eptifibatide 20 μM, P<0.01
Description: (A to E) Freshly drawn human peripheral blood (4 ml) containing heparin (10 U/ml) was placed in polypropylene tubes (A) whereas human peripheral blood without anticoagulant was placed in silicone-coated tubes (B to E) and incubated at 37° C. for the time course of 0 to 24 hours (see Example 1, Materials and Methods). The samples were then subjected to snap-freezing for extraction and LC-MS/MS analysis. […] (B) Left: Combined concentrations of the total SPM cluster, prostaglandins, and thromboxanes after 24 hours of coagulation in the presence or absence of the αIIbβ3 inhibitor eptifibatide (Eptifib.; 20 μM). Middle: Clot volumes after 24 hours of coagulation of the indicated samples. Right: Representative clot images. Data are means±SEM of three individual donors.
Human whole blood was transferred in 4-ml aliquots to negatively charged, silicone-coated 10-ml tubes (BD) without anticoagulant. For experiments with heparin, the heparinized blood was placed in 15-ml polypropylene tubes before incubation at 37° C. For LM profiling at designated times, all samples were immediately subjected to a workup procedure by which whole blood was snap-frozen in a dry ice/isopropanol bath and were returned to room temperature (×3 cycles) before undergoing centrifugation at 100,000 g at 4° C.

[2] = Flow cytometric analysis of clots, cell viability (annexin V / PI); type: cell-based, human; settings: human
Description: (§1) Human peripheral blood was collected from healthy individuals without anticoagulant and allowed to coagulate for 24 hours as described earlier. Clots were washed with phosphate-buffered saline (PBS) containing Ca2+ (0.9 mM) and Mg2+ (0.5 mM) and then gently homogenized and passed through a 70-micron filter. Clot-derived cells were stained for flow cytometric analysis. Cells were stained in FACS buffer (PBS with 1% BSA and 0.1% sodium azide). […] For viability assays, FITC-conjugated annexin V (BD) and propidium iodide (PI) were added to the cells according to the manufacturer's protocol. Samples were analyzed with a FACS Canto II flow cytometer (BD Bioscience) and FlowJo X Software.

[3] = tested on: clot-derived leukocytes and lymphocytes; experiment: as above; type: cell-based, human
Description: as §1

[4] = ADA, P<0.01
Description: Human blood was subjected to the same freeze-thaw procedure as was used for the metabololipidomics. After centrifugation at 1000 g at 4° C. for 5 min, supernatants were reconstituted with 4 volumes of methanol and kept on ice for 30 min to facilitate protein precipitation. Samples were then subjected to centrifugation at 1000 g at 4° C. for 5 min. Supernatants were reconstituted to <1% methanol and then taken to LC-MS/MS for identification and quantitation of adenosine by matched retention time with ≥99%, pure adenosine (Sigma) through MRM transition 268>136 for the protonated adenine fragment (54).

[5] = tested on: neutrophil-platelet aggregates; experiment: Neutrophil-platelet interactions by flow cytometry; type: cell-based, human; settings: with ADA
Description: Whole blood was collected from healthy individuals without anticoagulant and allowed to coagulate for 1, 6, or 24 h with or without ADA. Clots were washed with PBS and then gently homogenized and passed through a 70 micron-filter. Clot derived neutrophil-platelet interactions were analyzed by flow cytometry with FITC-conjugated anti-human CD16 antibody (clone ebio CB16), and PE-conjugated anti-human CD42b (clone HIP1). Neutrophils were identified by their cell surface expression of CD16 and high side and forward scatter. Platelets were identified based on their low side and forward scatter on a log scale and on their cell surface expression of CD42b. Neutrophil and platelet aggregates were identified as CD14-cells that were double-positive for CD42b and CD16 as CD14-,CD42b+,CD16+,SSChigh,FSChigh.

[6] = 24 h coagulation, n = 3, mean +/- S.E.M.

Row | Molecule | reduction of the total amount of the SPM cluster ([1]; eptifibatide 20 μM, 24 hours of coagulation, P<0.01) [%] | increase in clot volume (human blood clot) [%] | viability at 24 h [2] [%] | Early apoptosis [3] [%] | Late apoptosis [3] [%] | Necrotic [3] [%] | cell viability (in words) [3] | total SPM production vs. coagulation alone ([1]; 200 mU ADA, 24 hours) | time by which adenosine was cleared during coagulation [4] [h] | Early apoptosis [3, 6] [%] | Late apoptosis [3, 6] [%] | Live [3, 6] [%] | Necrotic [3, 6] [%] | cell viability (in words) ([3]; during coagulation) | number of platelet-neutrophil aggregates during the time course of coagulation [5]
1 | N=C(N)NCCCC[C@@H]1NC(=O)CCSSC[C@@H](C(N)=O)NC(=O)[C@@H]2CCCN2C(=O)[C@H](Cc2c[nH]c3ccccc23)NC(=O)[C@H](CC(=O)O)NC(=O)CNC1=O [Eptifibatide, eptifibatide, reference compound] ([Mpa][hArg]GDWPC-NH2; disulfide 1-7) | ~50 | ~20 | 90.6 ± 1.3 | 5.1 ± 1.9 | 2.0 ± 0.5 | 0.9 ± 0.1 | without reducing cell viability | – | – | – | – | – | – | – | –
2 | adenosine deaminase (protein, UniProt P00813 2-363, looked up, human recombinant adenosine deaminase, removes adenosine) Adenosine deaminase: AQTPAFDKPKVELHVHLDGSIKPETILYYGRRRGIALPANTAEGLLNVIGMDKPLTLPDFLAKFDYYMPAIAGCREAIKRIAYEFVEMKAKEGVVYVEVRYSPHLLANSKVEPIPWNQAEGDLTPDEVVALVGQGLQEGERDFGVKARSILCCMRHQPNWSPKVVELCKKYQQQTVVAIDLAGDETIPGSSLLPGHVQAYQEAVKSGIHRTVHAGEVGSAEVVKEAVDILKTERLGHGYHTLEDQALYNRLRQENMHFEICPWSSYLTGAWKPDTEHAVIRLKNDQANYSLNTDDPLIFKSTLDTDYQMTKRDMGFTEEEFKRLNINAAKSSFLPEDEKRELLDLLYKAYGMPPSASAGQNL | – | – | – | – | – | – | – | more than 8 times | ≤ 1 | 9.9 ± 2.9 | 5.8 ± 1.4 | 81.5 ± 0.5 | 2.7 ± 2.0 | Cell viability was not decreased | statistically significantly increased
